Assays:
[1] = target: oxidized LDL (oxidized low-density lipoprotein) (UniProt P04114); assay: competition ELISA on coated oxLDL; wells preincubated with Pentaglobin; competitor: IgA autoantibodies of COVID-19 sera
[2] = target: oxidized LDL (oxidized low-density lipoprotein) (UniProt P04114); assay: competition ELISA on coated oxLDL; wells preincubated with Pentaglobin; competitor: IgG autoantibodies of COVID-19 sera

percent inhibition of autoantibody binding to oxLDL [1]: > 20%
percent inhibition of autoantibody binding to oxLDL [2]: > 20%
Substance: Pentaglobin (human polyclonal immunoglobulin infusion preparation enriched for IgM and IgA)

Source: patent US20230295281A1
